Data: patent US20020103147A1

Target: transgene murine adenylylcyclase isoform VI (ACVI) with HA-tag, from the truncated construct of Example 5-2 (murine) (UniProt Q01341)
Assay: cell-based or functional assay

transgene murine adenylylcyclase isoform VI (ACVI) with HA-tag, from the truncated construct of Example 5-2 (murine), sequence (Q01341 whole entry, the tested form may be a part, canonical isoform): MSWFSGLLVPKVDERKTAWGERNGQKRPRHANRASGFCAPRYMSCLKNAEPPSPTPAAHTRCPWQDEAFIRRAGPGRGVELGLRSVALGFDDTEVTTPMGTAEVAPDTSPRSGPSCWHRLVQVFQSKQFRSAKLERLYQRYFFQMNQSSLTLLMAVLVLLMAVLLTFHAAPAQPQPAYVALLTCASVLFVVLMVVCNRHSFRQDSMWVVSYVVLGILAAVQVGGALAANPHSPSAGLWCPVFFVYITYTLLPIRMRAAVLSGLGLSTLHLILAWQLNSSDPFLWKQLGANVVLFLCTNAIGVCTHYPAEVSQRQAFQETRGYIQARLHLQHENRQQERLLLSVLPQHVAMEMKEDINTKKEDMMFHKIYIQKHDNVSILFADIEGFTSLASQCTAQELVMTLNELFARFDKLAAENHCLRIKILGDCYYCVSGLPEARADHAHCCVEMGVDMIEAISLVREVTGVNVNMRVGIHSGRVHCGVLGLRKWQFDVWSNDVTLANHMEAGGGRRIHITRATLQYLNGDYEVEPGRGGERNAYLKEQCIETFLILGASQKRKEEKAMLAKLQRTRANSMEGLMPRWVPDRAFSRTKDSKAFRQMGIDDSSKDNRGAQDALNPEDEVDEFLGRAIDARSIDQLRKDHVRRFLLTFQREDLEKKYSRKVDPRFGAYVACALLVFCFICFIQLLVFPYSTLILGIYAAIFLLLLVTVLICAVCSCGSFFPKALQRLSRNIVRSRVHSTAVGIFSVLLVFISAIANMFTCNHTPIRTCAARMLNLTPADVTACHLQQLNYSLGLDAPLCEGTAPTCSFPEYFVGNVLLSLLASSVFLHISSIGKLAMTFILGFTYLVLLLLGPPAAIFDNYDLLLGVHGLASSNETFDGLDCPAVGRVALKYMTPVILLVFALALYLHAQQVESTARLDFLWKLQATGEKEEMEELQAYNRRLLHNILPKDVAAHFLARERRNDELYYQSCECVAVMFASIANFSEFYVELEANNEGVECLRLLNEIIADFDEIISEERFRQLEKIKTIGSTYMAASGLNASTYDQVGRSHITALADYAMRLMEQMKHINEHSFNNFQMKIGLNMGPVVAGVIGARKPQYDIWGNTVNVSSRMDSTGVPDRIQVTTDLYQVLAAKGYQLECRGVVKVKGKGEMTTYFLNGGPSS

Net GTP gamma S-stimulated forskolin binding: 447 cpm
Substance: Gs (stimulatory GTP-binding protein) of neonatal rat cardiac myocytes (from UniProt P63095 2-394)
